Test results: publication PMC6851490, “Target highlights in CASP13: Experimental target structures through the eyes of their authors” (Proteins, 2019)

Tests used:
Bd2924 = target: T1, Bd2924 (Bdellovibrio bacteriovorus, UniProt Q6MJ59); test: X-ray crystal structure, […] Å; format: binding; details: without C10-CoA; one FAD per monomer at the dimer interface
T1 construct: crystal structure residues 3 to 505; homo-tetramer (dimer of dimers)
T1 sequence (Q6MJ59 3-505): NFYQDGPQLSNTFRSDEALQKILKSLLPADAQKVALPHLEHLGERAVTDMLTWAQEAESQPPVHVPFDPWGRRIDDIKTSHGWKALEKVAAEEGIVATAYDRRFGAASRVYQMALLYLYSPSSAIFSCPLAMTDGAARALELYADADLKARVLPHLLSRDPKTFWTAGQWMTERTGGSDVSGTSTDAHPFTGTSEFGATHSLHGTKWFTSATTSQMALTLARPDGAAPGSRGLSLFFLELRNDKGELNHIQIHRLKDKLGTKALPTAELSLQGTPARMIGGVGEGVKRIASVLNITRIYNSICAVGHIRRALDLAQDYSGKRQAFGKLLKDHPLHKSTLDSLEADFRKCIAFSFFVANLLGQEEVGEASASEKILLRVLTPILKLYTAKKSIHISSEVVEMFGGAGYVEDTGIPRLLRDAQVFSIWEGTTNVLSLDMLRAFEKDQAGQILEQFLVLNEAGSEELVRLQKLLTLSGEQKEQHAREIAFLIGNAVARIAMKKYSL

[1] = target: Afp7, tube initiator of the antifeeding prophage (AFP) (Serratia entomophila); test: cryo-EM structure; needle of the AFP particle, threefold symmetric, 3.4 Å, PDB 6RBK
[2] = target: Afp8, needle protein of the antifeeding prophage (AFP) (Serratia entomophila); test: as above
[3] = target: Afp16, cap protein of the antifeeding prophage (AFP) (Serratia entomophila); test: cryo-EM structure; apical end cap of the AFP particle in the extended state, sixfold symmetric, 3.3 Å, PDB 6RAP
[4] = target: Bd2924, putative acyl-CoA dehydrogenase (ACAD) from B. bacteriovorus (B. bacteriovorus); test: SEC; Bd2924 in solution, size exclusion chromatography
[5] = target: Bd2924, putative acyl-CoA dehydrogenase (ACAD) from B. bacteriovorus (B. bacteriovorus); test: crystal structure; Bd2924 with FAD, with and without C10-CoA, PDB 6SD8 and 6SDA
[6] = target: CdiI^Kp342 immunity protein (Klebsiella pneumoniae 342); test: crystal structure; CdiA-CT•CdiI complex from K. pneumoniae 342, PDB 6CP9, 2.55 Å
[7] = target: Pentafunctional AROM complex from Chaetomium thermophilum (Chaetomium thermophilum); test: crystal structure; CtAROM, X-ray, 3.00 Å, no PDB id
[8] = target: Pentafunctional AROM complex from Chaetomium thermophilum (Chaetomium thermophilum); test: not stated; CtAROM before crystallisation; homodimer of about 340 kDa; method not given
[9] = target: gp37 (distal part) of the Salmonella phage S16 long tail fiber (Salmonella phage S16); test: crystal structure; distal part of gp37 connected to gp38, phage S16, PDB 6F45, 1.70 Å
[10] = target: the molecule itself; test: crystal structure; recombinant AxlA with cleaved xyloglucan oligosaccharide, PDB 6DRU, 2.7 Å; quaternary assembly examined with EPPIC
[11] = target: the molecule itself; test: crystal structure; MAJIN-TERB2 core complex, PDB 6GNX, X-ray, 2.90 Å

Cc1cc2nc3c(=O)[nH]c(=O)nc-3n(C[C@H](O)[C@H](O)[C@H](O)COP(=O)(O)OP(=O)(O)OC[C@H]3O[C@@H](n4cnc5c(N)ncnc54)[C@H](O)[C@@H]3O)c2cc1C [FAD]
X-ray crystal structure, 1.51 Å (Bd2924): A single FAD molecule binds per monomer in a crevice located at the dimer interface

Afp7, tube initiator of the antifeeding prophage (AFP) (natural protein)
stoichiometry N [1]: 6

Afp8, needle protein of the antifeeding prophage (AFP) (natural protein)
stoichiometry N [2]: 3

Afp16, cap protein of the antifeeding prophage (AFP) (natural protein)
stoichiometry N [3]: 6

Bd2924, putative acyl-CoA dehydrogenase (ACAD) from B. bacteriovorus (enzyme)
stoichiometry N [4]: 4 | stoichiometry N [5]: 4

CdiI^Kp342 immunity protein (natural protein)
stoichiometry N [6]: 2

Pentafunctional AROM complex from Chaetomium thermophilum (enzyme)
stoichiometry N [7]: 2 | stoichiometry N [8]: 2

gp37 (distal part) of the Salmonella phage S16 long tail fiber (domain or fragment)
stoichiometry N [9]: 3

B1: α-xylosidase from Aspergillus niger (AxlA), glycoside hydrolase family 31 (enzyme, UniProt G3XMN9 19-736, looked up)
chain: TYFAPNSTGLRIQHGFETILIQPFGYDGFRVRAWPFRPPSGNEISFIYDPPIEGYEDTAHGMSYDTATTGTEPRTLRNGNIILRTTGWGGTTAGYRLSFYRVNDDGSETLLTNEYAPLKSLNPRYYYWPGPGAEFSAEFSFSATPDEQIYGTGTQQDHMINKKGSVIDMVNFNSYIPTPVFMSNKGYAFIWNMPAEGRMEFGTLRTRFTAASTTLVDYVIVAAQPGDYDTLQQRISALTGRAPAPPDFSLGYIQSKLRYENQTEVELLAQNFHDRNIPVSMIVIDYQSWAHQGDWALDPRLWPNVAQMSARVKNLTGAEMMASLWPSVADDSVNYAALQANGLLSATRDGPGTTDSWNGSYIRNYDSTNPSARKFLWSMLKKNYYDKGIKNFWIDQADGGALGEAYENNGQSTYIESIPFTLPNVNYAAGTQLSVGKLYPWAHQQAIEEGFRNATDTKEGSACDHVSLSRSGYIGSQRFCSMIWSGDTTSVWDTLAVQVASGLSAAATGWGWWTVDAGGFEVDSTVWWSGNIDTPEYRELYVRWLAWTTFLPFMRTHGSRTCYFQDAYTCANEPWSYGASNTPIIVSYIHLRYQLGAYLKSIFNQFHLTGRSIMRPLYMDFEKTDPKISQLVSSNSNYTTQQYMFGPRLLVSPVTLPNVTEWPVYLPQTGQNNTKPWTYWWTNETYAGGQVVKVPAPLQHIPVFHLGSREELLSGNVF
notes: AxlA, Aspergillus niger, UniProt G3XMN9; also called T1009; source: recombinant
stoichiometry N [10]: 2

B2: MAJIN (core of the human MAJIN-TERB2 complex) (domain or fragment)
chain: GSMSLKPFTYPFPETRFLHAGPNVYKFKIRYGKSIRGEEIENKEVITQELEDSVRVVLGNLDNLQPFATEHFIVFPYKSKWERVSHLKFKHGEIILIPYPFVFTLYVEMKWFHE
notes: MAJIN, human, the part in the MAJIN-TERB2 core complex; also called T0980s1; H0980 subunit A
stoichiometry N [11]: 2
